Reference: IntAct's records for PubMed 28691929

B1: E3 ubiquitin-protein ligase RFWD3 (Homo sapiens), Q6PCD5 (parent)
chain: MAHEAMEYDVQVQLNHAEQQPAPAGMASSQGGPALLQPVPADVVSSQGVPSILQPAPAEVISSQATPPLLQPAPQLSVDLTEVEVLGEDTVENINPRTSEQHRQGSDGNHTIPASSLHSMTNFISGLQRLHGMLEFLRPSSSNHSVGPMRTRRRVSASRRARAGGSQRTDSARLRAPLDAYFQVSRTQPDLPATTYDSETRNPVSEELQVSSSSDSDSDSSAEYGGVVDQAEESGAVILEEQLAGVSAEQEVTCIDGGKTLPKQPSPQKSEPLLPSASMDEEEGDTCTICLEQWTNAGDHRLSALRCGHLFGYRCISTWLKGQVRKCPQCNKKARHSDIVVLYARTLRALDTSEQERMKSSLLKEQMLRKQAELESAQCRLQLQVLTDKCTRLQRRVQDLQKLTSHQSQNLQQPRGSQAWVLSCSPSSQGQHKHKYHFQKTFTVSQAGNCRIMAYCDALSCLVISQPSPQASFLPGFGVKMLSTANMKSSQYIPMHGKQIRGLAFSSYLRGLLLSASLDNTIKLTSLETNTVVQTYNAGRPVWSCCWCLDEANYIYAGLANGSILVYDVRNTSSHVQELVAQKARCPLVSLSYMPRAASAAFPYGGVLAGTLEDASFWEQKMDFSHWPHVLPLEPGGCIDFQTENSSRHCLVTYRPDKNHTTIRSVLMEMSYRLDDTGNPICSCQPVHTFFGGPTCKLLTKNAIFQSPENDGNILVCTGDEAANSALLWDAASGSLLQDLQTDQPVLDICPFEVNRNSYLATLTEKMVHIYKWE

Variants of: B1
Conditions: with rfa2_human RPA2, P15927
Sequence of rfa2_human RPA2, P15927 (P15927 whole entry): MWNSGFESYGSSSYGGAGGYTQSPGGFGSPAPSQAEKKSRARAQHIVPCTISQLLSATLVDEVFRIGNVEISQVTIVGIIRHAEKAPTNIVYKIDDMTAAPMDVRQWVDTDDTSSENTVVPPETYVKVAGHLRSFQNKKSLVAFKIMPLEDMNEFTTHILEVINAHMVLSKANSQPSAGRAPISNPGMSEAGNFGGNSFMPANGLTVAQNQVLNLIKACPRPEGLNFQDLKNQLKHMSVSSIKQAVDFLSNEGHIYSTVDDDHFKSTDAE

| effect of a mutation on the interaction | Variant |
| --- | --- |
| decreasing interaction strength | I639K |

Variants of: B1
Conditions: with rfa2_human RPA2, P15927
Remark: another data set of the same source

| effect of a mutation on the interaction | Variant |
| --- | --- |
| disrupting interaction strength | I639K |
